Assay results published in US20220064691A1 (ABERA BIOSCIENCE, published 2022).

B1: GFPnb-SpyCatcher (VHH)
VHH: MVQLVESGGALVQPGGSLRLSCAASGFPVNRYSMRWYRQAPGKEREWVAGMSSAGDRSSYEDSVKGRFTISRDDARNTVYLQMNSLKPEDTAVYYCNVNVGFEYWGQGTQVTVSS
notes: also called GFPnb-SpC; GFPNanobody-SpyCatcher
B2: GFPnb-SpC EQ (VHH)
VHH: B1 VHH

What was measured:
ssTorA(3×)-MBP-SpT [1] = assay: overview table of covalent ligation to inclusion bodies
ssTorA(3×)-MBP-SpT [2] = assay: covalent coupling to inclusion bodies in PBS, 25 °C 2 h; SDS-PAGE and Coomassie staining
Description: The mixtures were incubated at 25° C. for 2h. The inclusion bodies were collected through centrifugation and resuspended in PBS.

Binder | binding result (ssTorA(3×)-MBP-SpT [1]) | binding result (ssTorA(3×)-MBP-SpT [2])
B1 | binds | 
B2 |  | no binding (tested: 3.2 µM)
